Source: patent US9371374

Tests used:
Assay in all cases: EIA, captured mAb
[1] = molecular target: biotinylated HCV core peptide 151-171 (Peptide 3) (HCV-1)
[2] = molecular target: biotinylated HCV core peptide 134-154 (Peptide 1) (HCV-1)
[3] = molecular target: biotinylated HCV core peptide 141-161 (Peptide 2) (HCV-1)

Row | Binder | Reactivity (OD492) [1] | Reactivity (OD492) [2] | Reactivity (OD492) [3]
1 | HCV 208A-207 (antibody, V domains shown) VH: QGQLQQPGAEFVKPGASLKLSCRASGYTFTSYWIHWVKQRPGQGLEWIGEIDPSDSYINQNQKFRGKATLTVDKSSSTAYMELSGLTSEDSAVYYCARHYYGVLDSWGQGTTLTVSS VL: DIVLTQSPATLSVTPGDRVSLSCRASQRIYNYLHWYQQKSHESPRLLTKYASQSISGIPSRFSGSGSGTDFILTINSVETEDFGMYFCQQSNSWPLTFGAGTKLELRR | 0.08 OD | 1.24 OD | 0.17 OD
2 | HCV 208A-638 (antibody, V domains shown) VH: QGQLQQPGAEFVKPGASLKLSCRASGYTFTSYWIHWVKQRPGQGLEWIGEVDPSDSYINQNEKFRGKATLTVDKSSSTAYMQLGSLTSEDSAVYYCARHYYGVLDSWGQGTALTVSS VL: QIVLTQSPTIMSASLGERVTMTCTASSSVSSSYLHWFQQKPGSSPKLWIYSTSNLASGVPPRFSGSGSGTSYSLSISSVEAEDVATYYCLQFHRSPWTFGGGAKLEIKR | 0.09 OD | 0.07 OD | 2.96 OD
3 | HCV 208A-159 (antibody, V domains shown) VH: QLQQSGPAQVKPGASVMISCKTSGYTFTENAMHWVKQSHGKSLEWIGGVNPNNGDTIFNQKFKDKAALTVDKSSSTAFMELRSLTSEESTVYYCVRRELDFFDYWGQGTSVTVSS VL: DIVLTQSPASLAVSLGQRATISCRASQSVSTSRYSYVHWYQQKPGQPPKLLIKYAANLESGVPARFSGSGSGTDFTLNIHPVAEEDAAAYYCQHSWEFPFTFGSGTKLEIKR | 0.19 OD | 0.15 OD | 3.77 OD
4 | HCV 208A-741 (antibody, V domains shown) VH: QLQQSGPVLVKPGASVMISCKTSGYTFTENAMHWVKQSHGKSLEWIGGVNPNNGDTIFNQKFKGKATLTVDKSSSTAFMELRSLTSEESTVYYCVRRELDFFDYWGQGTSVTVSS VL: DIVLTQSPASLAVSLGQRTTISCGASQSVSTSRFSYMHWYQQKPGQPPKLLIKYASNLESGVPARFSGSGSGTDFTLNIHPVAEEDTAAYYCQHSWEFPFTFGSGTKLEIKR | 0.06 OD | 1.2 OD | 3.37 OD
5 | HCV 208A-422 (antibody, V domains shown) VH: DVQLQESGPGLVNPSQSLSLTCSVTGYSITSGYYWIWIQQSPGNKLEWMGYIKYDGGNNYSPSLKNRISIARDTSKNQCFLKLNSVTIEDTATYYCTRGSDSFDYWGQGTTLTVSS VL: DIVLTQSPASLAVSLGQRAIISCKASQSVSFAGTNLMHWYQQKPGQQPKLLIYRASNLETGVPTRFSGSGSRTDFTLNIHPVEEDDAATYYCQQSREYYTFGGGTKLEIKR | 0.1 OD | 0.05 OD | 0.84 OD
6 | HCV 208A-442 (antibody, V domains shown) VH: DVQLQESGPGLVNPSQSLSLTCSVTGYSITSGYYWIWIRQFPGNKLEWMGYIKYDGGNNYSPSLKNRISIARDTSKNQFFLKLNSVTIEDTATYYCTRGSDSFDYWGQGTTLTVSS VL: DIVLTQSPASLAVSLGQRAIISCKASQSVSFAGTNLMHWYQQKPGQQPKLLIYRASNLETGVPTRFSGSGSRTDFTLNIHPVEEDDAATYYCQQSREYYTFGGGTKLEIKR | 0.06 OD | 0.08 OD | 3.04 OD
7 | HCV 208A-877 (antibody, V domains shown) VH: QLQQSGPELVKPGASVKISCKTSGYTFTENAMHWVKQSRGKSLEWIGGVNPNNGDTVYTQKFKGKATLTVAKSSSTAYMELRTMTCEESTVYYCASREPDFFDYWGQGSSVTVSS VL: QIVLTQSPAIMSVSPGEKVSMTCSASSSVTYMHWYQQKSGTSPKRWIYDTSELASGVPARFSGSGSGTTYSLTISSMEAEDAATYYCQQWSNKPLTFGAGTKLELKR | 0.05 OD | 0.06 OD | 1.21 OD
8 | HCV 208A-1064 (antibody, V domains shown) VH: EVQLQQSGPELVKPGASVKISCKTSGYTFTEYAMHWMKQSHGKSLEWIGGINPTNGDTIYNQKFKDKAKLTVDRSSSTAYMELRSLTSDDSALFYCARRELDYFASWGQGTTLTVSS VL: DIVLTQSPASLIVSLGQTATISCRASQSVSTSRFSYLHWIQQKPGQPPKLLIKYASNLESGVPVRFSGSGSGTDFTLNIHPVEEEDTATYFCQHSWEFPFTFGSGTKLKIKR | 0.12 OD | 0.1 OD | 3.5 OD
9 | HCV 208A-293 (antibody, V domains shown) VH: EVQLQQSGPELVKPGASVKISCKASGFTFTEYAMHWMKQSHGKSLEWIGGINPTNGDAIYNQKFKDKAKLTVDRSSSTAYMELRSLTSDDSALFYCARRELDYFPSWGQGTTLTVSS VL: DIVLTQSPASLIVSLGQRATISCRASQSVSTSRFSYVHWIQQKPGQPPKLLIKYASNLESGVPVRFSGSGSGTDFILNIHPVEEEDTATYFCQHSWEFPFTFGSGTKLEIKR | 0.11 OD | 0.08 OD | 2.42 OD
10 | HCV 208A-605 (antibody, V domains shown) VH: EVQLQQSGPELEKPGASVKISCKTSGYTFTEYAIHWVKQSHGMSLEWIGGINPSNGNAIYNQIFKDKATLTVDRSSSTAYMGLRSLTFGDSGVYFCVRRQLDFFDYWGQGASLTVSS VL: DIVVTQSPASLAVSLGQRATISCRASQSVSTSRYSYLHWYQQKPGQPPKLLIKYASNLESGVPARFSGSGSGTDFTLNIHPVGEEDTATYYCQHSWEFPFTFGSGTKLEIKR | 0.16 OD | 0.22 OD | 3.71 OD
11 | HCV 208A-830 (antibody, V domains shown) VH: EVRLQQPGPEVEKPGASVKISCKTSGYTFTEYAIHWVKQSHGESLEWIGGINPSNGDPIYNQIFKDKATLTVDRSSNTAYMGLRSLTVGDSGVYFCVRRQLDYFDFWGQGASLTVSS VL: DIVLTQSPASLAVSLGQRATISCRSSQSVSTSRYSYLHWYQQKPGQPPKLLIKYASNLESGVPARFSGSGSGTDFTLNIHPVGEEDPATYYCQHSWEFPFTFGSGTKLEIKR | 0.08 OD | 0.07 OD | 2.88 OD
12 | HCV 208A-126 (antibody, V domains shown) VH: QLQQSGPVLVKPGASVMISCKTSGYTFTENAMHWVKQSHGKSLEWIGGVNPNNGDTIFNQKFKGKATLTVDKSSNTAFTELRSLPSEESTVYYCVRRGLDFFDYWGQGTSVTVSS VL: DIVLTQSPASLAVSLGQRATISCRASQSVSTSRYSYMHWYQQKPGQPPKLLIKYASNLESGVPARFSGSGSGTDFTLNIHPVAEEDTAAYYCQHSWEFPFTFGSGTKLEIKR | 0.1 OD | 0.2 OD | 2.08 OD
13 | HCV 208A-133 (antibody, V domains shown) VH: QLQQSGPVLVGPGASVMISCKTSGYTFTENAMHWVEQSHGKSLEWIGGVNPNNGDTIFNQKFKGKATLTVDKSSSTAFMEFRSLTSEESTVYYCVRRELDFFDYWGQGTSVTVSS VL: DIVLTQSPASLAVSLGQRATISCRASQSVSTSRYSYMHWYQQKPGQPPKLLIKYASNLESGVPARFSGSGSGTDFTLNIHPVAEEDTATYYCQHSWEFPFTFGSGTKLEIKR | 0.13 OD | 0.1 OD | 3.68 OD
14 | HCV 208A-222 (antibody, V domains shown) VH: EVQLQQSGPELEKPGASVRISCKTSGYTFTEYAMHWVKQSHGKSLEWIGGINPNNGNAIYNQIFKDKATLTVDRSSSTAYMGLRSLTFGDSGVYFCVRRQLDYFDYWGQGASLTVSS VL: DIVVTQSPASLAVSLGQRATISCRASQSVSTSRYSYLHWYQQKPGQPPKLLIKYASNLESGVPARFSGSGSGTDFTLNIHPVGEEDTATYYCQHSWEFPFTFGSGTKLEIKR | 0.08 OD | 0.06 OD | 2.7 OD
15 | HCV 208A-134 (antibody, V domains shown) VH: QGQMQQSGAELAKPGASVKLSCKTSGFTFSSSYISWLKQKPGQSLEWIAWIYAGTGNTNYNQKFTDKAQLTVDTSSSTAYMQLSSLTTEDSAIYYCAISGTGFTYWGQGTLVTVSA VL: EVLMTQSPLSLPVSLGDQASISCRSSQSLEHTNGNTYLEWFLQRPGQPPKLLIYKVSSRFSGVPDRFSGSGSGTDFTLKISRVEAEDLGVYYCFQGSHVPFTFGSGTKLAIKR | 0.06 OD | 2.06 OD | 0.08 OD
16 | HCV 208A-557 (antibody, V domains shown) VH: QGQMQQSGAELVKPGASVKLSCKTSGFTFSSSYISWLKQKPGQSLEWIAWIYAGTGNTNYNQKFTDKAQLTVDTSSSTAYMQLSSLTTEDSAIYYCAISGTGFTYWGQGTLVTVSA VL: DIALTQSPASLAVSLGQRATISCRASQSVSTSRYSYMHWYQQKPGQPPELLIKYASNLESGVPARFSGSGSGTDFTLNIHPVGEEDTATYYCQHSWDFPFTFGSGTKLEIKR | 0.06 OD | 0.05 OD | 2.41 OD
17 | HCV 208A-352 (antibody, V domains shown) VH: QGQMQQSGAELVKPGASVKLSCKTSGFTFSSSFISWLKQKPGQSLEWIAWIYAGTGNTNYNQKFTDKAQLTVDTSSSTAYMQFSSLTTEDSAIYYCAISGTGFTYWGQGTLVTVSA VL: DVLMAQTPLSLPVTLGDQASISCRSSQSLVHSNGNTYLEWFLQKPGQSPKLLIYNVSNRFSGVPDRFSGSGSGTDFTLKISRVEAEDLGVYYCFQGSHVPLTFGSGTKLEIKR | 0.06 OD | 1.08 OD | 0.07 OD
18 | HCV 208B-1024 (antibody, V domains shown) VH: EVQLVESGGDLVKPGGSLKLSCAASGFTFSNYGMSWVRQTPDKRLEWVATISSGGSYSYYPDSVKGRFTISRDNAKNILYLQMSSLKSEDTAMYYCASLYYGYGDYWGQGTAFTVSS VL: DVLMTQTPLSLPVSLGDQASISCRSSQSIVHSNGNTYLEWYLQKLGQSPKLLIYRVSNRFSGVPDRFSGSGSGTDFTLKISRVEAEDLGVYYCFQGSHVPWTFGGGTKLEIKR | 0.15 OD | 0.08 OD | 0.75 OD
19 | HCV 208A-210 (antibody, V domains shown) VH: QVQLQQSGPELVKPGASMRISCKASGYTFTSYYVHWIKQRPGQGLEWIGCIYPGDVNTDYNEKFKGKATLTADKSSSTAYMQVSTLTSEDSAIYFCVLYYYGSFAYWGQGTLVTVSA VL: EIVLTQSPAITAASLGQNVTITCRASSSVSYMHWYRQKSGTSPQLWIYEISRRASGVPARFRASGSGTSYSLTISSMEAEDAAIYYCQQWNYPLTFGAGTKLEVKR | 0.05 OD | 0.06 OD | 1.15 OD
